Reference: paper PMC12732313, “Phylogenetic and biochemical analysis of the evolution and interdomain modularity of bifunctional L-fucokinase/GDP-fucose pyrophosphorylases” (The Journal of Biological Chemistry, 2025)

How the values were obtained:
[1] = system: C[C@@H]1O[C@H](OP(=O)(O)O)[C@@H](O)[C@H](O)[C@@H]1O; experiment: purified protein; details: pyrophosphorylase activity, 400 μM GTP, 10 mM MgCl2, pH 7.5, 37 °C
[2] = system: Nc1nc2c(ncn2[C@@H]2O[C@H](COP(=O)(O)OP(=O)(O)OP(=O)(O)O)[C@@H](O)[C@H]2O)c(=O)[nH]1; experiment: purified protein; details: pyrophosphorylase activity, 250 μM Fuc-1-P, 10 mM MgCl2, pH 7.5, 37 °C
BfFKP = target: T1, BfFKP (Bacteroides fragilis, UniProt Q58T34); experiment: thermal shift, SYPRO orange; type: binding; details: 2 mM L-fucose, pH 7.0; lower melting transition; domain not assigned
T1 construct: gene fkp; codon-optimized gene in pET vector, E. coli BL21(DE3) with GroEL/GroES/Trigger Factor; Ni-IMAC; no solubility tag
T1 sequence (Q58T34 whole entry): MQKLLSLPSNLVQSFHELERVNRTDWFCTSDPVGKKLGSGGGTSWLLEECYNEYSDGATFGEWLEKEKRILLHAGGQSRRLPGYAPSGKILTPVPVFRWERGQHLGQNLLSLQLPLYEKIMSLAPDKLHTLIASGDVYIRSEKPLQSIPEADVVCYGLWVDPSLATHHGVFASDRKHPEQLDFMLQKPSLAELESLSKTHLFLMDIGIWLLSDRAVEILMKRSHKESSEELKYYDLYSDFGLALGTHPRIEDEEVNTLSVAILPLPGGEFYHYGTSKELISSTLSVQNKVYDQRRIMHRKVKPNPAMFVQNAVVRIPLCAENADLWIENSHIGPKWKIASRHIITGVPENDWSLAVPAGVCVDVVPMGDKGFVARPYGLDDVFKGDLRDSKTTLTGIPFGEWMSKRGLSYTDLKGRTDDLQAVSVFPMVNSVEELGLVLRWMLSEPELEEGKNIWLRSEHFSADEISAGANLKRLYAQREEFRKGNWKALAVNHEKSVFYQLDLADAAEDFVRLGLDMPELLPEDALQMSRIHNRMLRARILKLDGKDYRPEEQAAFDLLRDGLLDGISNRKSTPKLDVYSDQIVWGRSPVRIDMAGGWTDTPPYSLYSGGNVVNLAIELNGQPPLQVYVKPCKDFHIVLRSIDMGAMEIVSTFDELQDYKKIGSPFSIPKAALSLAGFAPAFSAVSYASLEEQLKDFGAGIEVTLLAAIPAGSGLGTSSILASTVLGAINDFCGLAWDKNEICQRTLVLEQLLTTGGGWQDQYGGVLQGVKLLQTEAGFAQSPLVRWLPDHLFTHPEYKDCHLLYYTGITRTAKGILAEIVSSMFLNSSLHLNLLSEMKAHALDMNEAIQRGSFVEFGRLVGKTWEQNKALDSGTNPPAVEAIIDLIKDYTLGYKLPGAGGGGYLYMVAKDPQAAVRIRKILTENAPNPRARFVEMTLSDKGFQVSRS
Source text: thermal shift, SYPRO orange on BfFKP

TxFKP = target: T2, TxFKP (Thermophagus xiamenensis, UniProt A0A1I2DJ10); experiment: thermal shift, SYPRO orange; type: binding; details: 2 mM L-fucose, pH 7.0; Tm2 assigned to FUK domain
T2 construct: gene SAMN05444380_11920; codon-optimized gene in pET-28a, E. coli BL21(DE3) with GroEL/GroES/Trigger Factor; Ni-IMAC; GroEL (~60 kDa) contaminant remains
T2 sequence (A0A1I2DJ10 1-954): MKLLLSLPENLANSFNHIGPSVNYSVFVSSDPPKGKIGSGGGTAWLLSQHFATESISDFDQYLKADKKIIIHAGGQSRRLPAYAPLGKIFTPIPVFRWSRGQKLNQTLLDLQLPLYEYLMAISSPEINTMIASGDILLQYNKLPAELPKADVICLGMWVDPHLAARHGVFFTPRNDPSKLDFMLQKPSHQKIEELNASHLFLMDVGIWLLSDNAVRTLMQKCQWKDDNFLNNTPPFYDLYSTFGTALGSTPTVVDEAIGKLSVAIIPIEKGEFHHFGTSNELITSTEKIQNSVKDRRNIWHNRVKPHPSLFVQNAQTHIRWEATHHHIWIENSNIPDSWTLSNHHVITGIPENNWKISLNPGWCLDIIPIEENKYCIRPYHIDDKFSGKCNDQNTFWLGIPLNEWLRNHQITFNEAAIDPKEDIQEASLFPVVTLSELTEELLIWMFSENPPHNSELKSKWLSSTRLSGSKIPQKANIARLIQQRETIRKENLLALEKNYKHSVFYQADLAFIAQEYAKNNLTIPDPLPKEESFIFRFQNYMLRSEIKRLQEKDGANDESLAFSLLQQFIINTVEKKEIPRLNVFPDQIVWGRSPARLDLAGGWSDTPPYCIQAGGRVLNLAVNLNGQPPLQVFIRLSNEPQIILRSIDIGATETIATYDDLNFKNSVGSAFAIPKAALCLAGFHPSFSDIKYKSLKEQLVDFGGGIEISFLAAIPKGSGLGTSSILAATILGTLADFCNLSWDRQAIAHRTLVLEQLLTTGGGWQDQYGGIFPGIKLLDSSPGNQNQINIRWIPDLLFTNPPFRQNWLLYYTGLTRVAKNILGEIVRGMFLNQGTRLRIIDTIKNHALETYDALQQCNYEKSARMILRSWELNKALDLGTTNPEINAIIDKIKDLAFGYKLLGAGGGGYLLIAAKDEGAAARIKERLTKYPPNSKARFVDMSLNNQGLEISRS
Source text: thermal shift, SYPRO orange on TxFKP

purified protein [3] = substrate: C[C@@H]1O[C@H](OP(=O)(O)O)[C@@H](O)[C@H](O)[C@@H]1O; experiment: purified protein; type: biochemical, Thermophagus xiamenensis; details: pyrophosphorylase activity, 100 μM GTP, 10 mM MgCl2, pH 7.5, 37 °C
purified protein [4] = substrate: Nc1nc2c(ncn2[C@@H]2O[C@H](COP(=O)(O)OP(=O)(O)OP(=O)(O)O)[C@@H](O)[C@H]2O)c(=O)[nH]1; experiment: purified protein; type: biochemical, Thermophagus xiamenensis; details: pyrophosphorylase activity, 250 μM Fuc-1-P, 10 mM MgCl2, pH 7.5, 37 °C
purified protein [5] = substrate: Nc1ncnc2c1ncn2[C@@H]1O[C@H](COP(=O)(O)OP(=O)(O)OP(=O)(O)O)[C@@H](O)[C@H]1O; experiment: purified protein; type: biochemical, Thermophagus xiamenensis; details: kinase activity, 1 mM L-fucose, 10 mM MnCl2, pH 7.5, 37 °C

## BfFKP (Bacteroides fragilis)
[1]
  Km: 120 ± 60 µM
  kcat: 9 ± 3 s⁻¹
  kcat/Km: 70000 ± 50000 M⁻¹ s⁻¹
[2]
  Km: 140 ± 30 µM
  kcat: 13 ± 3 s⁻¹
  kcat/Km: 90000 ± 30000 M⁻¹ s⁻¹

## C[C@@H]1OC(O)[C@@H](O)[C@H](O)[C@@H]1O (stereo partly drawn) [L-fucose]
BfFKP
  ΔTm1 (°C): 2.0 ± 0.0 °C
TxFKP
  Δ Tm2 (°C): 1.8 ± 0.2 °C

B1: TxFKP (Thermophagus xiamenensis) (protein)
chain: T2 sequence (A0A1I2DJ10 1-954)
notes: codon-optimized gene in pET-28a, E. coli BL21(DE3) with GroEL/GroES/Trigger Factor; Ni-IMAC; GroEL (~60 kDa) contaminant remains
Purified protein [3]
  Km: 66 ± 20 µM
  kcat: 4.8 ± 0.6 s⁻¹
  kcat/Km: 70000 ± 30000 M⁻¹ s⁻¹
Purified protein [4]
  Km: 27 ± 11 µM
  kcat: 8 ± 1.1 s⁻¹
  kcat/Km: 300000 ± 130000 M⁻¹ s⁻¹
Purified protein [5]
  Km: 1000 ± 300 µM
  kcat: 0.74 ± 0.07 s⁻¹
  kcat/Km: 700 ± 300 M⁻¹ s⁻¹
